We go through three molecules from patent US8796201B2 (The Board of Trustees of the Leland Stanford Junior …, priority 2002, dated 2014).

The subject of data set [1] is trypsin, chymotrypsin, elastase and carboxypeptidase A. Nature of the data set: Pancreatic protease stability. The data set is classed as in vitro ADME. As to conditions: pH 6.5. The method, then: FIG. 9. Resistance of the FM PEP and the MX PEP to inactivation by gastric and pancreatic enzymes. Pancreatic enzyme stability was evaluated by treating 5 U/ml of the FM PEP and the MX PEP with 1 mg/ml trypsin, 1 mg/ml chymotrypsin, 0.2 mg/ml elastase and 0.2 mg/ml carboxypeptidase A (40 mM phosphate, pH=6.5). Pepsin stability was tested by treating the FM PEP and the MX PEP (5 U/ml) with 1 mg/ml pepsin (pH=2, 20 mM HCl).
Gastric and Pancreatic Protease Stability. […] Absorption was measured at 410 nm for 1 to 2 min every 10 s to assay residual activity. […] Enzyme activities are expressed as a percentage of the maximum activity, typically observed at the zero time point.
PEP Stability. […] We therefore evaluated the extent to which the activity of each PEP remains intact after 10 min of incubation at selected pH values between 1.6 and 3.9. […] Since therapeutic efficacy would require a PEP to act upon gluten in conjunction with pancreatic proteases that are secreted into the duodenum, the resistance of FM PEP and MX PEP toward both gastric and pancreatic enzymes was evaluated. For this we pre-incubated the enzymes with physiological quantities of either pepsin (at pH 2) or a cocktail comprising of trypsin, chymotrypsin, elastase and carboxypeptidase A (at pH 6.5).

A further data set concerns PQPQLPYPQPQLP
Nature of the data set: Site specificity of […] hydrolysis, LC/MS/MS. The data set is classed as biochemical, wheat. As to conditions: 100 μM peptide, 0.1 μM enzyme, early time points. As for the experimental part:
FIG. 10. Site specificity of […] hydrolysis by individual PEPs. HPLC-UV (215 nm) traces are shown for each reaction mixture. Initial cleavage fragments (100 μM (SEQ ID NO:4) […], 0.1 μM enzyme, t=5 min) were identified by tandem mass spectrometry. The starting material (SEQ ID NO:4) […] and the cleavage fragments A: (SEQ ID NO:4, aa. 1-8) […], B: (SEQ ID NO:4, aa 7-13) YPQPQLP, C: (SEQ ID NO:12, aa 1-6) PQPQLP, D: (SEQ ID NO:4, aa 2-6) QPQLP) are indicated in the traces.
The decrease in substrate concentration as well as concomitant intermediate and product build-up were monitored with HPLC analysis. RP-HPLC was performed on a system consisting of Beckman or Rainin Dynamax SD-200, a Varian 340 UV detector set at 215 nm and 280 nm. Solvent A was H2O with 0.1% TFA and solvent B was acetonitrile with 0.1% TFA; gradient used: 0-5% B in 0-15 min, 5-30% B in 15-30′, 30-100% B in 30-35 min, 100% B for 5′; flow 1 ml/min; separation was performed on a 4.6×150 mm reverse phase C-18 column (Vydac, Hesperia, Calif., USA). Samples were centrifuged for 10 min at 13,400 g, prior to injection of 10-100 μl. […] Thus, multiple peptides accumulate during the course of the reaction, some of which are secondary PEP substrates in themselves.
To analyze the regiospecificity of hydrolysis of (SEQ ID NO:4) […] by individual PEPs, samples corresponding to early time points were further analyzed by LC/MS/MS. […]

A further data set relates to 33-mer gliadin peptide. Kind of data set: In vivo endopeptidase activity: co-perfusion of 33-mer and PEP in rat jejunum. As for the experimental part: FIG. 7. Breakdown and detoxification of 33-mer gliadin peptide with PEP.
FIG. 14. (SEQ ID NO:12) Proteolysis of […] (5 μM) co-perfused with individual PEP's (0.1 μM) in the small intestinal lumen of an anesthetized rat. Each enzyme-substrate mixture was introduced via a catheter into a 15-20 cm segment of the upper jejunum. Samples were collected at the other end of the segment, and analyzed by UV-HPLC (215 nm). The control without any PEP is shown in the top trace.
In accordance with the methods of the invention, a prolyl endopeptidase can catalyze breakdown of this peptide, thereby diminishing its toxic effects. […] The ability of this PEP to clear the 33-mer gliadin peptide was evaluated via in vitro and in vivo experiments.
In Vivo Endopeptidase Activity. An adult (female or male) rat was anesthetized and maintained at 36-37° C. during the entire surgical procedure. The peritoneal cavity was opened, and a small incision was made at the beginning and the end of a 15-20 cm jejunum segment. Polyethylene catheters were inserted and secured into the two ends. The input catheter was connected with a pump-driven syringe filled with a solution. […] The collected digestive products were analyzed by HPLC on a C18 column.
In Vivo Hydrolysis. […] In this live animal model, the impact of concerted action of the perfused (luminal) PEP and the brush border (surface) peptidases is assessed.

B1: MX PEP: novel recombinant prolyl endopeptidase from Myxococcus xanthus (Genbank AF127082, SEQ ID NO:47) (protein, listed as Myxococcus xanthus)
chain: MSYPATRAEQVVDTLHGVQVADPYRWLEDEKAPEVQTWMTAQNAHAREALAKFPGREALAARFKELFYTDSVSTPSRRNGRFFYVRTHKDKEKAILYWRQGESGQEKVLLDPNGWSKDGTVSLGTWAVSWDGKKVAFAQKPNAADEAVLHVIDVDSGEWSKVDVIEGGKYATPKWTPDSKGFYYEWLPTDPSIKVDERPGYTTIRYHTLGTEPSKDTVVHERTGDPTTFLQSDLSRDGKYLFVYILRGWSENDVYWKRPGEKDFRLLVKGVGAKYEVHAWKDRFYVLTDEGAPRQRVFEVDPAKPARASWKEIVPEDSSASLLSVSIVGGHLSLEYLKDATSEVRVATLKGKPVRTVQLPGVGAASNLMGLEDLDDAYYVFTSFTTPRQIYKTSVSTGKSELWAKVDVPMNPEQYQVEQVFYASKDGTKVPMFVVHRKDLKRDGNAPTLLYGYGGFNVNMEANFRSSILPWLDAGGVYAVANLRGGGEYGKAWHDAGRLDKKQNVFDDFHAAAEYLVQQKYTQPKRLAIYGGSNGGLLVGAAMTQRPELYGAVVCAVPLLDMVRYHLFGSGRTWIPEYGTAEKPEDFKTLHAYSPYHHVRPDVRYPALLMMAADHDDRVDPMHARKFVAAVQNSPGNPATALLRIEANAGHGGADQVAKAIESSVDLYSFLFQVLDVQGAQGGVAAQGR
Take B1: the “resistance to pancreatic enzymes” value in data set [1] was “remarkably stable to destruction”. For the same molecule, the “preferred site of cleavage in PQPQLPYPQPQLP” value in the data set on PQPQLPYPQPQLP is “PQPQLP|YPQPQLP”.

B2: PEP: prolyl endopeptidase; Examples 1-2: from Flavobacterium meningosepticum (US Biological); Example 11: source not stated (protein, UniProt P27028 21-705, looked up)
Prolyl endopeptidase: QNSNVLKYPETKKVSHTDTYFGTQVSDPYRWLEDDRAEDTKAWVQQEVKFTQDYLAQIPFRDQLKKQLMDIWNYEKISAPFKKGKYTYFSKNDGLQAQSVLYRKDAAGKTEVFLDPNKFSEKGTTSLASVSFNKKGTLVAYSISEGGSDWNKIIILDAETKKQLDETLLDVKFSGISWLGDEGFFYSSYDKPKEGSVLSGMTDKHKVYFHKLGTKQSQDELIIGGDKFPRRYIGAYVTDDQRYLVVSAANATNGNELYIKDLKNKTDFIPIITGFDSNVNVADTDGDTLYLFTDKDAPNKRLVKTTIQNPKAETWKDVIAETSEPLEINTGGGYFFATYMKDAIDQVKQYDKNGKLVRAIKLPGSGNASGFGGEKTEKDLYYSFTNYITPPTIFKYNVTTGNSEVYQKPKVKFNPENYVSEQVFYTSSDGTKIPMMISYKKGLKKDGKNPTILYSYGGFNISLQPAFSVVNAIWMENGGIYAVPNIRGGGEYGKKWHDAGTKMQKKNVFNDFIAAGEYLQKNGYTSKEYMALSGRSNGGLLVGATMTMRPDLAKVAFPGVGVLDMLRYNKFTAGAGWAYDYGTAEDSKEMFEYLKSYSPVHNVKAGTCYPSTMVITSDHDDRVVPAHSFKFGSELQAKQSCKNPILIRIETNAGHGAGRSTEQVVAENADLLSFALYEMGIKSLK
In the case of B2, the “detoxification (clearance) of the 33-mer gliadin peptide” value in the data set with 33-mer gliadin peptide (rat BBM and co-perfusion in intact rat intestines) was “this detoxification was demonstrated”.

B3: FM PEP: recombinant prolyl endopeptidase from Flavobacterium meningosepticum (Genbank D10980) (protein)
chain: QNSNVLKYPETKKVSHTDTYFGTQVSDPYRWLEDDRAEDTKAWVQQEVKFTQDYLAQIPFRDQLKKQLMDIWNYEKISAPFKKGKYTYFSKNDGLQAQSVLYRKDAAGKTEVFLDPNKFSEKGTTSLASVSFNKKGTLVAYSISEGGSDWNKIIILDAETKKQLDETLLDVKFSGISWLGDEGFFYSSYDKPKEGSVLSGMTDKHKVYFHKLGTKQSQDELIIGGDKFPRRYIGAYVTDDQRYLVVSAANATNGNELYIKDLKNKTDFIPIITGFDSNVNVADTDGDTLYLFTDKDAPNKRLVKTTIQNPKAETWKDVIAETSEPLEINTGGGYFFATYMKDAIDQVKQYDKNGKLVRAIKLPGSGNASGFGGEKTEKDLYYSFTNYITPPTIFKYNVTTGNSEVYQKPKVKFNPENYVSEQVFYTSSDGTKIPMMISYKKGLKKDGKNPTILYSYGGFNISLQPAFSVVNAIWMENGGIYAVPNIRGGGEYGKKWHDAGTKMQKKNVFNDFIAAGEYLQKNGYTSKEYMALSGRSNGGLLVGATMTMRPDLAKVAFPGVGVLDMLRYNKFTAGAGWAYDYGTAEDSKEMFEYLKSYSPVHNVKAGTCYPSTMVITSDHDDRVVPAHSFKFGSELQAKQSCKNPILIRIETNAGHGAGRSTEQVVAENADLLSFALYEMGIKSLK
Take B3: the “resistance to pancreatic enzymes” value in data set [1] is “remarkably stable to destruction”. Also, the “preferred site of cleavage in PQPQLPYPQPQLP” value in the data set with PQPQLPYPQPQLP is reported as “PQPQLPPYP|QPQLP”. The “breakdown of the 33-mer co-perfused in rat jejunum” value in the data set with 33-mer gliadin peptide (5 μM 33-mer, 0.1 μM PEP, 15-20 cm segment) was “promoted more complete breakdown of the 33-mer than both the MX and the SC PEP”.
